Laboratory results from patent US20250257346A1.

B1: IdeE combined mutant E97D_del18 (protein)
chain: ITSVWTKGVTPLTPEQFRYNNEDVIHAPYLAHQGWYDITKAFDGKDNLLCGAATAGNMLHWWFDQNKTEIEAYLSKHPDKQKIIFNNQELFDLKAAIDTKDSQTNSQLFNYFRDKAFPNLSARQLGVMPDLVLDMFINGYYLNVFKTQSTDVNRPYQDKDKRGGIFDAVFTRGDQTTLLTARHDLKNKGLNDISTIIKQELTEGRALALSHTYANVSISHVINLWGADFNAEGNLEAIYVTDSDANASIGMKKYFVGINAHRHVAISAKKIEGENIGAQVLGLFTLSSGKDIWQKLSHHHHHH
B2: IdeE mutant IDEEV2 (protein)
chain: ITSVWTKGVTPLTPEQFRYNNEDVIHAPYLAHQGWYDITKAFDGKDNLLCGAATAGNMLHWWFDQNKTEIEAYLSKHPDKQKIIFNNQELFDLKAAIDTKDSQTNSQLFNYFRDKAFPNLSARQLGVMPDLVLDMFINGYYLNVFKTQSTDVNRPYQDKDKRGGIFDAVFTRGDQTTLLTARHDLKNKGLNDISTIIKQELTEGRALALSHTYANVSISHVINLWGADFNAEGNLEAIYVTDSDANASIGMKKYFVGINAHGHVAISAKKIEGENIGAQVLGLFTLSSGKDIWQKLS

What was measured:
Trastuzumab = test: cell-based or functional assay
[1] = biological target: human IVIg (intravenous immunoglobulin)

| Molecule | cleavage of human IgG1, SDS-PAGE (fold of wild-type IdeE) (Trastuzumab) | Fold of activity relative to wild-type (cleavage of human IgG1, ELISA) (Trastuzumab) [fold] | further results |
| --- | --- | --- | --- |
| IdeE C-terminal truncated mutant WT_delC5 (enzyme) | > 2 | – | – |
| IdeE C-terminal truncated mutant WT_delC10 (enzyme) | > 2 | – | – |
| IdeE mutant A10K (enzyme) | – | 1.99 | – |
| IdeE mutant A10R (enzyme) | – | 2.2 | – |
| IdeE mutant A59I (enzyme) | – | 2.31 | – |
| IdeE mutant A59L (enzyme) | > 2 | 2.41 | – |
| IdeE mutant A59V (enzyme) | > 2 | 2.68 | – |
| IdeE mutant E97D (enzyme) | > 2 | 2 | – |
| IdeE mutant R280H (enzyme) | > 2 | 2.3 | – |
| IdeE mutant R280K (enzyme) | – | 2.2 | – |
| IdeE mutant T8D (enzyme) | > 2 | 2.21 | – |
| IdeE mutant T8E (enzyme) | – | 2.09 | – |
| IdeE mutant T8W (enzyme) | > 2 | 2.58 | – |
| IdeE mutant T8Y (enzyme) | – | 2.3 | – |
| IdeE mutant T24A (enzyme) | > 2 | 2.23 | – |
| IdeE mutant T24G (enzyme) | – | 2.09 | – |
| IdeE mutant T24S (enzyme) | – | 2.18 | – |
| B1 | – | – | cleavage in human serum, SDS-PAGE (IgG1 in human serum): E97D_del18 cleaves in human serum to produce an apparent 25 kD Fc fragment; cleavage in mouse serum, SDS-PAGE (IgG1 in mouse serum): little or no cleavage activity against IgG1 in mouse serum; cleavage of serum IgG, SDS-PAGE (canine IgG): can effectively cleave rabbit, canine, and monkey serum IgG; cleavage, SDS-PAGE (canine IgG): E97D_del18 could effectively cleave canine IgG, rabbit IgG and mouse IgG2a; cleavage of human IVIg in mouse serum and plasma, SDS-PAGE [1]: E97D_del18 is effective in cleaving human IVIg in both mouse serum and plasma; cleavage of serum IgG, SDS-PAGE (monkey IgG): can effectively cleave rabbit, canine, and monkey serum IgG; cleavage of serum IgG, SDS-PAGE (mouse IgG): almost no cleavage effect for rat and mouse serum IgG; cleavage of serum IgG, SDS-PAGE (pig serum IgG): poor cleavage effect for pig serum IgG; cleavage of serum IgG, SDS-PAGE (rabbit IgG): can effectively cleave rabbit, canine, and monkey serum IgG, with the best cleavage effect for rabbit serum IgG; cleavage, SDS-PAGE (rabbit IgG): E97D_del18 could effectively cleave canine IgG, rabbit IgG and mouse IgG2a; cleavage of serum IgG, SDS-PAGE (rat IgG): almost no cleavage effect for rat and mouse serum IgG |
| B2 | – | – | digestion of purified IgG, non-reduction SDS-PAGE (1:200) (canine IgG): IDEEV2 can in species-specificity effectively digest IgG in rabbits, dogs, monkeys, and humans; digestion of purified IgG, non-reduction SDS-PAGE (1:200) (human IgG): IDEEV2 can in species-specificity effectively digest IgG in rabbits, dogs, monkeys, and humans; digestion of purified IgG, non-reduction SDS-PAGE (1:200) (monkey IgG): IDEEV2 can in species-specificity effectively digest IgG in rabbits, dogs, monkeys, and humans; digestion of purified IgG, non-reduction SDS-PAGE (1:200) (rabbit IgG): IDEEV2 can in species-specificity effectively digest IgG in rabbits, dogs, monkeys, and humans |
